The supplement of paper PMC7877785
± gives the uncertainty stated by the source.

Experiment: self-splicing fitness, log relative to wild type (ln ratio); higher = more splicing; Tetrahymena group I intron in knt gene, E. coli kanamycin selection, DiMSum; sequences stand for … in CUCUCU…GGAGGGAAAAGUUAUCAGGCAUGCACCUGGUAGCUAGUCUUUAAACCAAUAGAUUGCAUCGGUUUAAAAGGCAAGACCGUCAAAUUGCGGGAAAGGGGUCAACAGCCGUUCAGUACCAAGUCUCAGGGGAAACUUUGAGAUGGCCUUGCAAAGGGUAUGGUAAUAAGCUGACGGACAUGGUCCUAACCACGCAGCCAAGUCCUAAGUCAACAGAUCUUCUGUUGAUAUGGAUGCAGUUCACAGACUAAAUGUCGGUCGGGGAAGAUGUAUUCUUCUCAUAAGAUAUAGUCGGACCUCUCCUUAAUGGGAGCUAGCGGAUGAAGUGAUGCAACACUGGAGCCGCUGGGAACUAAUUUGUAUGCGAAAGUAUAUUGAUUAGUUUUGGAGUACUCGUGGUCG
In short: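 Library with all eight P1ex-region intron nucleotides randomised, intron inside the knt kanamycin-resistance gene on pET-22b(+), in E. coli BL21(DE3). Cells grew overnight at 37°C or 30°C on LB agar with or without 25 μg/mL kanamycin (plus 100 μg/mL carbenicillin, 50 μM IPTG, 0.2% rhamnose), in six replicate transformations. Pooled colonies were amplicon-sequenced on Illumina HiSeq 2500. DiMSum fitness is the error-weighted combination of wild-type-normalised replicate fold changes, kanamycin versus none.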

| Sequence | self-splicing fitness (ln) (30 °C) | self-splicing fitness (ln) (37 °C) |
| --- | --- | --- |
| CACGAGCAAUAUUACGCUAA | -2.95 ± 0.34 | -2.75 ± 0.22 |
| CACGAGCAAUAUUACGCUUG | -3.27 ± 0.34 | -2.03 ± 0.47 |
| CACGAGCAAUAUUACGGAUC | – | -2.84 ± 0.3 |
| CACGAGCAAUAUUACGGCUU | -3.77 ± 0.24 | -3.16 ± 0.29 |
| CACGAGCAAUAUUACGGGAA | -2.95 ± 0.2 | -3.1 ± 0.29 |
| CACGAGCAAUAUUACGGUAG | -2.41 ± 0.12 | -2.18 ± 0.14 |
| CACGAGCAAUAUUACGGUCG | -1.72 ± 0.14 | -0.457 ± 0.14 |
| CACGAGCAAUAUUACGGUGG | -2.15 ± 0.11 | -2.33 ± 0.15 |
| CACGAGCAAUAUUACGGUUC | – | -1.98 ± 0.34 |
| CACGAGCAAUAUUACGUAGU | -3.22 ± 0.17 | -2.73 ± 0.26 |
| CACGAGCAAUAUUACGUAUG | -3.54 ± 0.14 | -2.79 ± 0.16 |
| CACGAGCAAUAUUACGUGAC | -2.72 ± 0.15 | -2.44 ± 0.15 |
| CACGAGCAAUAUUACGUGCG | -3.73 ± 0.19 | -2.09 ± 0.15 |
| CACGAGCAAUAUUACGUGUC | -3.87 ± 0.2 | -2.52 ± 0.14 |
| CACGAGCAAUAUUACGUGUG | -3.48 ± 0.13 | -3.21 ± 0.17 |
| CACGAGCAAUAUUACGUUUG | -3.57 ± 0.13 | -2.17 ± 0.13 |
| CACUAGCAAUAUUACGAAGU | -2.82 ± 0.21 | -3.06 ± 0.29 |
| CACUAGCAAUAUUACGAAUA | -3.16 ± 0.37 | -2.33 ± 0.18 |
| CACUAGCAAUAUUACGACCG | 0.413 ± 0.1 | 0.573 ± 0.12 |
| CACUAGCAAUAUUACGAGCU | -3.44 ± 0.18 | -2.75 ± 0.17 |
| CACUAGCAAUAUUACGAUGU | -4.05 ± 0.37 | -1.63 ± 0.19 |
| CACUAGCAAUAUUACGCCAA | -2.23 ± 0.16 | -2.89 ± 0.24 |

| Sequence | self-splicing fitness (ln) (30 °C) | self-splicing fitness (ln) (37 °C) |
| --- | --- | --- |
| CACUAGCAAUAUUACGCUCC | – | -1.46 ± 0.2 |
| CACUAGCAAUAUUACGGAAC | – | -1.93 ± 0.22 |
| CACUAGCAAUAUUACGGAGC | -4.52 ± 0.28 | -2.8 ± 0.15 |
| CACUAGCAAUAUUACGGAGG | -2.39 ± 0.1 | -0.627 ± 0.1 |
| CACUAGCAAUAUUACGGCCU | -2.77 ± 0.2 | -1.94 ± 0.18 |
| CACUAGCAAUAUUACGGGUA | -0.856 ± 0.057 | -0.188 ± 0.064 |
| CACUAGCAAUAUUACGGUUA | -1.99 ± 0.12 | -0.466 ± 0.1 |
| CACUAGCAAUAUUACGUCGG | -1.25 ± 0.082 | 0.0907 ± 0.1 |
| CACUAGCAAUAUUACGUGGU | -3.41 ± 0.15 | -2.88 ± 0.17 |
| CACUAGCAAUAUUACGUUAU | -3.42 ± 0.22 | -3.52 ± 0.23 |
| CAGAAGCAAUAUUACGAGAU | -3.23 ± 0.17 | -2.44 ± 0.23 |
| CAGAAGCAAUAUUACGAGGG | -2.99 ± 0.23 | -1.18 ± 0.31 |
| CAGAAGCAAUAUUACGAUAC | – | -1.81 ± 0.2 |
| CAGAAGCAAUAUUACGAUGU | -3.37 ± 0.23 | -1.97 ± 0.2 |
| CAGAAGCAAUAUUACGCACG | -0.596 ± 0.072 | -0.261 ± 0.08 |
| CAGAAGCAAUAUUACGCACU | -2.13 ± 0.14 | -1.36 ± 0.14 |
| CAGAAGCAAUAUUACGCAUG | -3.89 ± 0.21 | -2.44 ± 0.17 |
| CAGAAGCAAUAUUACGCGCA | -1.55 ± 0.17 | -0.337 ± 0.12 |
| CAGAAGCAAUAUUACGCUCA | -1.61 ± 0.11 | 0.0994 ± 0.11 |
| CAGAAGCAAUAUUACGCUCG | -1.31 ± 0.11 | -0.994 ± 0.15 |
| CAGAAGCAAUAUUACGGAAG | -1.65 ± 0.077 | -1.35 ± 0.095 |
